From publication PMC11078399 come the findings set out here.

In the assay the target is T1, Fzo1 (yeast mitofusin), wild type (S. cerevisiae) (UniProt P38297).
T1 sequence: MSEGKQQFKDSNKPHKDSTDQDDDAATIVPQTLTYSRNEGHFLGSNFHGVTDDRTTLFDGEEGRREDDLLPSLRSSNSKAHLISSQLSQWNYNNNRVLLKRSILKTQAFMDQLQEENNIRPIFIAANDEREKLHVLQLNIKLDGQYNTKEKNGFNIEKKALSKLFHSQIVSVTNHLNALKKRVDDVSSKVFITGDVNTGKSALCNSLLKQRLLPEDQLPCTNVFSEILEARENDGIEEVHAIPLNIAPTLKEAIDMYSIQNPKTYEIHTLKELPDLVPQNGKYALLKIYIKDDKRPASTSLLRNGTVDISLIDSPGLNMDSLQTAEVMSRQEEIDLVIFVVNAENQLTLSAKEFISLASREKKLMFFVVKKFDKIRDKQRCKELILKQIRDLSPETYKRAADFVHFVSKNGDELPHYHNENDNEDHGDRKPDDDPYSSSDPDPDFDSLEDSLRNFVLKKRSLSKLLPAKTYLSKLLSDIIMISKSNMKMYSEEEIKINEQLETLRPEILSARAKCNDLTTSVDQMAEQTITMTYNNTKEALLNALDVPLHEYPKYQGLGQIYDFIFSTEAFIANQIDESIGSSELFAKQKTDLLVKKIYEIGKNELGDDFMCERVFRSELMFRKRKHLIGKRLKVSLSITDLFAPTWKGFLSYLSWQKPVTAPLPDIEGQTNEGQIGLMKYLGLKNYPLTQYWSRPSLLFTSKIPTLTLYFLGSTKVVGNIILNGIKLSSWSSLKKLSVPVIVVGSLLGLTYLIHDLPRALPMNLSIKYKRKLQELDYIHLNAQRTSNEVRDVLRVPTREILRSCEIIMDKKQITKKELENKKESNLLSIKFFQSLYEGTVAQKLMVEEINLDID

B1: Fzo1 S201N (GTPase domain mutant) (natural protein)
chain: MSEGKQQFKDSNKPHKDSTDQDDDAATIVPQTLTYSRNEGHFLGSNFHGVTDDRTTLFDGEEGRREDDLLPSLRSSNSKAHLISSQLSQWNYNNNRVLLKRSILKTQAFMDQLQEENNIRPIFIAANDEREKLHVLQLNIKLDGQYNTKEKNGFNIEKKALSKLFHSQIVSVTNHLNALKKRVDDVSSKVFITGDVNTGKNALCNSLLKQRLLPEDQLPCTNVFSEILEARENDGIEEVHAIPLNIAPTLKEAIDMYSIQNPKTYEIHTLKELPDLVPQNGKYALLKIYIKDDKRPASTSLLRNGTVDISLIDSPGLNMDSLQTAEVMSRQEEIDLVIFVVNAENQLTLSAKEFISLASREKKLMFFVVKKFDKIRDKQRCKELILKQIRDLSPETYKRAADFVHFVSKNGDELPHYHNENDNEDHGDRKPDDDPYSSSDPDPDFDSLEDSLRNFVLKKRSLSKLLPAKTYLSKLLSDIIMISKSNMKMYSEEEIKINEQLETLRPEILSARAKCNDLTTSVDQMAEQTITMTYNNTKEALLNALDVPLHEYPKYQGLGQIYDFIFSTEAFIANQIDESIGSSELFAKQKTDLLVKKIYEIGKNELGDDFMCERVFRSELMFRKRKHLIGKRLKVSLSITDLFAPTWKGFLSYLSWQKPVTAPLPDIEGQTNEGQIGLMKYLGLKNYPLTQYWSRPSLLFTSKIPTLTLYFLGSTKVVGNIILNGIKLSSWSSLKKLSVPVIVVGSLLGLTYLIHDLPRALPMNLSIKYKRKLQELDYIHLNAQRTSNEVRDVLRVPTREILRSCEIIMDKKQITKKELENKKESNLLSIKFFQSLYEGTVAQKLMVEEINLDID
With B1, the ex vivo PerMit contact assay with mitochondria from pex34Δ cells: decrease of specific mitochondrial attachment to peroxisome beads with FZO1 S201N against WT FZO1 mitochondria stood at 17%.
